The record followed here is publication PMC10199020 (Nature Communications, 2023).

A word on the Ki: it is a measure of affinity in units of concentration, obtained from inhibition or displacement. Low readings indicate tighter binding, high ones weaker binding.

The experiment has as its target T1, NL-IL23R co-expressed with IL12Rβ1 (IL-23 receptor on cells) (UniProt Q5VWK5 24-629; P42701 24-662).
T1 construct: also called NL-IL23R and IL12Rβ1; NL-IL23R with IL12Rβ1; source: HEK293T, transiently transfected, on living cells
The experiment in a line: FRET or BRET; NanoBRET competition on living transfected HEK293T cells; 300 pM IL23-TMR displaced by unlabelled antagonist (concentration series or a single concentration); 1 h at 37 °C in HBSS with 1 mg/mL BSA. The note with it: one partner purified. In general terms: Bioluminescence resonance energy transfer reports proximity on the nanometre scale.

T1 sequence (Q5VWK5 24-629, chain 1 of 2, other chains not shown): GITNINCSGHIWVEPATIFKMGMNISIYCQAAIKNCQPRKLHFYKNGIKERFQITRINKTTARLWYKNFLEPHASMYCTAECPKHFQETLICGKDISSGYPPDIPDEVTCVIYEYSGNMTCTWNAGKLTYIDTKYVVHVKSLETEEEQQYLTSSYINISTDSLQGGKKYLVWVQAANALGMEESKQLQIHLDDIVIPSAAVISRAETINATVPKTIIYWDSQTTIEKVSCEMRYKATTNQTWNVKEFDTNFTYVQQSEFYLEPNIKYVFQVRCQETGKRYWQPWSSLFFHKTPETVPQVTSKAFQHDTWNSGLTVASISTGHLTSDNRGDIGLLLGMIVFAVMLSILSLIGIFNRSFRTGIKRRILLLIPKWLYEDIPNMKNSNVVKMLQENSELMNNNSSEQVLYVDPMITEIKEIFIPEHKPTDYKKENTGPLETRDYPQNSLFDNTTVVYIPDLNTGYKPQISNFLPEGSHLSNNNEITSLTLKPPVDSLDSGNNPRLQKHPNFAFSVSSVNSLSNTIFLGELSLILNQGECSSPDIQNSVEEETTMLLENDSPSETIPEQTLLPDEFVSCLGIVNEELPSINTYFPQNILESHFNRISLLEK

B1: IL12p40 (ligand, UniProt P29460 23-328, looked up)
chain: IWELKKDVYVVELDWYPDAPGEMVVLTCDTPEEDGITWTLDQSSEVLGSGKTLTIQVKEFGDAGQYTCHKGGEVLSHSLLLLHKKEDGIWSTDILKDQKEPKNKTFLRCEAKNYSGRFTCWWLTTISTDLTFSVKSSRGSSDPQGVTCGAATLSAERVRGDNKEYEYSVECQEDSACPAAEESLPIEVMVDAVHKLKYENYTSSFFIRDIIKPDPPKNLQLKPLKNSRQVEVSWEYPDTWSTPHSYFSLTFCVQVQGKSKREKKDRVFTDKTSATVICRKNASISVRAQDRYYSSSWSEWASVPCS
notes: source: bought: Peprotech (CHO produced)
Take B1: the Ki was 0.0124 µM.
